The target in experiment [1] is Vip3Aa Domain I-Domain III truncation variant (Bacillus thuringiensis (Bt 9816C)). In words: SEC + other: protein thermal shift.
The target in experiment [2] is Vip3Aa protoxin (full-length vegetative insecticidal protein Vip3Aa) (Bacillus thuringiensis (Bt 9816C)). In words: SEC + other: dynamic light scattering.
The target of experiment [3] is trypsin-activated DI-DIII of Vip3Aa (DI-DIII^act) (Bacillus thuringiensis (Bt 9816C)). Description: SEC.

On to “Vip3Aa Domain I-Domain III truncation variant (domain or fragment)”, for which the stoichiometry N in experiment [1] was found to be 4.
As to “Vip3Aa protoxin (full-length vegetative insecticidal protein Vip3Aa) (natural protein)”, the stoichiometry N in experiment [2] was 4.
On to “trypsin-activated DI-DIII of Vip3Aa (DI-DIII^act) (complex)”, for which the stoichiometry N in experiment [3] came to 4.

The values are drawn from doi:10.1101/2022.07.14.500127.
